*: point of attachment. HiLyteFluor‑488 = fluorophore label at the N-terminus; donor fluorophore = not defined here; K(Quencher) = not defined here; K(quencher) = not defined here; Donor = not defined here; Acm = CC(=O)NC*
Tests used:
Format in all cases: biochemical
ADAMTS-7 = target: T1, ADAMTS-7 (Homo sapiens, UniProt Q9UKP4, A119V/A123T/A127T/A171V/A193G/A200T/A28V/A36P/A42G/A66V/A78S/A97T/D77A/DEL186-188/DEL228-233/E133D/E190K/E213K/E83Q/G114S/G115N/G117S/G196D/G27H/H100Y/H124S/H234Q/K153R/L143F/L192S/L20I/P189H/P201S/P29L/P33S/P79S/Q99P/R118N/R122Q/R174Q/R195Q/R215Q/R218H/R35L/R75A/R76Q/R87Q/R92L/S170E/S199R/S202G/S214H/T110I/T125V/V182M/V208G/V74A/W225K/Y209S); assay: ADAMTS-7 enzymatic activity FRET assay, testing of inhibitory compounds
T1 construct: rat ADAMTS-7 signal peptide + prodomain (rat 1-217), fusion partner (N); 2xStrep tag (C); 6xHis tag (C); made in house; host or cells: Expi293 cells
T1 sequence (Q9UKP4 with tags, fused parts or gaps with the stated changes): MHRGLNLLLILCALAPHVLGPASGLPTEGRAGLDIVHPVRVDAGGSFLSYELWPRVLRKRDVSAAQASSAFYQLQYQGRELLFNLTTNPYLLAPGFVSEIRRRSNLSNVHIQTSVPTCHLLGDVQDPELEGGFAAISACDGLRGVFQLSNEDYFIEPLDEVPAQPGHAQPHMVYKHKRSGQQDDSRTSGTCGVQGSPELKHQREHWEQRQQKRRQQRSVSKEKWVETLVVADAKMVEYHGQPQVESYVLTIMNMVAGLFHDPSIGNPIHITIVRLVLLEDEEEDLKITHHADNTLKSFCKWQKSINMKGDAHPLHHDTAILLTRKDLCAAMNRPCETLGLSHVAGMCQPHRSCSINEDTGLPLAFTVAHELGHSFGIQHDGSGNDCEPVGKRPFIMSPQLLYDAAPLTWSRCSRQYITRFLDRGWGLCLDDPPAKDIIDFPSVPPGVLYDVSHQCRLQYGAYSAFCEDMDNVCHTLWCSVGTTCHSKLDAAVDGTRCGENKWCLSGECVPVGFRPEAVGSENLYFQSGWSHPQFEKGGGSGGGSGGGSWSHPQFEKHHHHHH
Experimental: Purified recombinant ADAMTS-7 (as of SEQ ID NO: 1 or SEQ ID NO: 2) was diluted in reaction buffer (20 mM HEPES pH 8.0, 150 mM NaCl, 5 mM CaCl2, 0.004% Brij, 10 μM ZnCl2) for a concentration of approximately 20 nM. 25 μl of the solution were transferred into each well of a 384-well white microtiter plate (Greiner Bio-One 781075) and 1 μl test compound solution (modulator/inhibitor dissolved in DMSO, at the corresponding concentration) or pure DMSO as a control were added per well. […] Amino acids […] are derived from Thrombospondin-1 sequence (275-289). An additional carboxyl glutamic acid was added after the QXL520 quencher to increase substrate solubility. The microtiter plate was incubated for 120 min at the temperature of 32° C. The increase of fluorescence intensity was measured in appropriate fluorescence plate reader (e.g. TECAN Ultra) using excitation wavelength of 485 nm and emission wavelength of 520 nm. IC50 values were calculated from percentage of inhibition of ADAMTS-7 activity as a function of test compound concentration. IC50 values derived using functional ADAMTS-7 according to SEQ ID NO: 1 or SEQ ID NO: 2, respectively, were not distinguishable, both laying within the experimental error.
The assays to determine the IC50 for ADAMTS inhibition were performed as described earlier herein.

rADAMTS7 (1-575) = target: T2, rADAMTS7 (1-575) (Rattus norvegicus, UniProt Q1EHB3); assay: FRET peptide substrate cleavage by rADAMTS7 (1-575) (SEQ ID NO: 3); conditions: approx. 100 nM enzyme, 10 μM peptide substrate
T2 construct: Flag (C); made in house; host or cells: Expi293 cells
T2 sequence (Q1EHB3 with tags, fused parts or gaps): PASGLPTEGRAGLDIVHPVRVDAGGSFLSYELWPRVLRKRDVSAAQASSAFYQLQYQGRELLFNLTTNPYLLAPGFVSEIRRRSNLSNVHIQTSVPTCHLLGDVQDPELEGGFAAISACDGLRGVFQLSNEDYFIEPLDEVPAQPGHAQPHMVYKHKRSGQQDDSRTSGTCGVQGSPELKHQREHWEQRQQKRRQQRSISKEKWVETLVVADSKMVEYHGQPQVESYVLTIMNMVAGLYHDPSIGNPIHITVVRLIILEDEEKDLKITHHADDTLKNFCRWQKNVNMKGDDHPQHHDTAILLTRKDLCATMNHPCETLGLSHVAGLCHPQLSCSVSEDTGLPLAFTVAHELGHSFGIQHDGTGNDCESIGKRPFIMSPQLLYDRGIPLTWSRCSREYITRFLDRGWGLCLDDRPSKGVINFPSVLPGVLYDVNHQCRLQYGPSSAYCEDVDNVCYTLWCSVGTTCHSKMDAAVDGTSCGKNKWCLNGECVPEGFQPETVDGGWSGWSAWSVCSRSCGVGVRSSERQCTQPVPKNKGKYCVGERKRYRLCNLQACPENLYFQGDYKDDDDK
Experimental: (§1) Purified recombinant ADAMTS-7 (as of SEQ ID NO: 1 or SEQ ID NO: 2) and purified recombinant rADAMTS-7 (rat ADAMTS-7 residues 1-575 with a carboxyl terminal Flag, SEQ ID NO: 3) were used to identify substrates from the TSP1 and COMP candidate peptides. ADAMTS-7 was diluted in reaction buffer (20 mM HEPES pH 8.0, 150 mM NaCl, 5 mM CaCl2, 0.004% Brij, 10 μM ZnCl2) for a concentration of approximately 100 nM and pre-incubated for 2 hr at room temperature prior to reaction start with 10 μM candidate peptide substrates. There were some differences between optimized buffer data and reported 2 mM Zn^2+ buffer data (Liu 2006 FASEB J); for example, the published amount of Zinc in assay buffer caused the purified ADAMTS-7 proteins to precipitate. Candidate FRET substrates based on SEQ ID NO: 4 to 10 were generated through custom synthesis by Anaspec—AnaSpec, EGT (34801 Campus Drive, Fremont, Calif. 94555, USA); as explained by the manufacturer; AnaSpec, EGT Group's pH insensitive HiLyte™ Fluor dyes are a series of fluorescent labeling dyes with fluorescence emissions that span the full visible and near infrared spectrum. HiLyte™ Fluor dyes and AnaSpec's proprietary quenchers QXL™ have been used as fluorophore and quencher pairs for fluorescence resonance energy transfer (FRET) in our Examples in the reaction buffer.
(§2) The TSP substrate sequences indicate the cleavage site (underlined) between glutamate and leucine as determined by mass spectrometry. COMP substrate cleavage products were below the detection limit of the mass spectrometer.

[1] = target: T3, rPro-hCD ADAMTS-7 (SEQ ID NO: 1) (Homo sapiens, UniProt Q9UKP4, A119V/A123T/A127T/A171V/A193G/A200T/A28V/A36P/A42G/A66V/A78S/A97T/D77A/DEL186-188/DEL228-233/E133D/E190K/E213K/E83Q/G114S/G115N/G117S/G196D/G27H/H100Y/H124S/H234Q/K153R/L143F/L192S/L20I/P189H/P201S/P29L/P33S/P79S/Q99P/R118N/R122Q/R174Q/R195Q/R215Q/R218H/R35L/R75A/R76Q/R87Q/R92L/S170E/S199R/S202G/S214H/T110I/T125V/V182M/V208G/V74A/W225K/Y209S); assay: FRET peptide substrate cleavage by rPro-hCD (SEQ ID NO: 1); conditions: for kcat, Enzyme SEQ ID NO: 1: rPro-hCD: approx. 100 nM enzyme, 10 μM peptide substrate; for cleavage activity with ADAMTS-7 human catalytic domain constructs (in words): rPro-hCD (SEQ ID NO: 1) and FM2 (SEQ ID NO: 2) constructs; for activity profile of modified S1 substrates (in words): S1 peptide with additional hydrophilic moiety, data not shown
T3 construct: rat ADAMTS-7 signal peptide + prodomain (rat 1-217), fusion partner (N); 2xStrep tag (C); 6xHis tag (C); made in house; host or cells: Expi293 cells
Experimental: as §1, §2

[2] = target: T4, rPro-hCD-FM2 ADAMTS-7 (SEQ ID NO: 2) (Homo sapiens, UniProt Q9UKP4, A119V/A123T/A127T/A171V/A193G/A200T/A28V/A36P/A42G/A66V/A78S/A97T/D77A/DEL186-188/DEL228-233/E133D/E190K/E213K/E83Q/G114S/G115N/G117S/G196D/G27H/H100Y/H124S/H234Q/K153R/L143F/L192S/L20I/P189H/P201S/P29L/P33S/P79S/Q235K/Q99P/R118N/R122Q/R174Q/R195Q/R215Q/R218H/R35L/R75A/R76Q/R87Q/R92L/S170E/S199R/S202G/S214H/T110I/T125V/V182M/V208G/V74A/W225K/Y209S); assay: FRET peptide substrate cleavage by rPro-hCD-FM2 (SEQ ID NO: 2); conditions: approx. 100 nM enzyme, 10 μM peptide substrate
T4 construct: rat ADAMTS-7 signal peptide + prodomain (rat 1-217, Q216K), fusion partner (N); 2xStrep tag (C); 6xHis tag (C); made in house; host or cells: Expi293 cells
T4 sequence (Q9UKP4 with tags, fused parts or gaps with the stated changes): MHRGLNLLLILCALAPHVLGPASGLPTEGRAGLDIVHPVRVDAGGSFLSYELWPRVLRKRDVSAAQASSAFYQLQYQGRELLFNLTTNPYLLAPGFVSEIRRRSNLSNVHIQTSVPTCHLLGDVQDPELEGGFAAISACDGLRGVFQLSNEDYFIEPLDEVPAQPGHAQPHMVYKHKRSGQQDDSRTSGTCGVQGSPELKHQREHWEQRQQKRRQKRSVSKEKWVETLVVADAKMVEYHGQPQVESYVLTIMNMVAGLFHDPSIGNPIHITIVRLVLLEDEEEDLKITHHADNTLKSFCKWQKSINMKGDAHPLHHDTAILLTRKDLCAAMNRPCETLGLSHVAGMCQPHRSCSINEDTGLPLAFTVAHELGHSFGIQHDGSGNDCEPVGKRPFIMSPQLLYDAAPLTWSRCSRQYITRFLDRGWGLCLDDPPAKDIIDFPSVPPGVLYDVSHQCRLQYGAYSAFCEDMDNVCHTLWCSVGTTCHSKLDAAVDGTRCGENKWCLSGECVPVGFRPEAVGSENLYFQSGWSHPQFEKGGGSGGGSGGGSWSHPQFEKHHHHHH
Experimental: as §1, §2

| Compound | IC50 (ADAMTS-7) [nM] | kcat, Enzyme SEQ ID NO: 3: rADAMTS7 (1-575) (rADAMTS7 (1-575)) [s⁻¹] | kcat, Enzyme SEQ ID NO: 1: rPro-hCD [1] [s⁻¹] | cleavage activity with ADAMTS-7 human catalytic domain constructs (in words) [1] | kcat, Enzyme SEQ ID NO: 2: rPro-hCD-FM2 [2] [s⁻¹] | activity profile of modified S1 substrates (in words) [1] |
| --- | --- | --- | --- | --- | --- | --- |
| CC(C)(C)C1(CNC(=O)c2cnc(-c3ccccc3)o2)NC(=O)NC1=O (racemic) [Example 12.4, rac-{[4-tert-butyl-2,5-dioxoimidazolidin-4-yl]methyl}-2-phenyl-1,3-oxazole-5-carboxamide] | 480 | – | – | – | – | – |
| (HiLyteFluor-488)-SSMVLELRGLRTIVT-K(QXL520)-NH2 ({HiLyteFluor‑488}-SSMVLELRGLRTIVTK(QXL520)-NH2) [TSP1-2, FRET peptide substrate, TSP1 amino acids 278-292] | – | 0.000128 | 5.33e-05 | cleaved | 4.83e-05 | – |
| (HiLyteFluor-488)-DELSSMVLELRGLRT-K(QXL520)-NH2 ({HiLyteFluor‑488}-DELSSMVLELRGLRTK(QXL520)-NH2) [TSP1-1, FRET peptide substrate for ADAMTS-7/12, TSP1 amino acids 275-289] | – | 0.000167 | 0.00035 | greatest specificity | 0.0004 | – |
| (HiLyteFluor-488)-SSMVLELRGLRT-K(QXL520)-NH2 ({HiLyteFluor‑488}-SSMVLELRGLRTK(QXL520)-NH2) [TSP1-5, FRET peptide substrate, TSP1 amino acids 278-289] | – | 4.17e-05 | 3.33e-05 | Activity was observed | 3.5e-05 | – |
| (Donor) SPGFRCEACPPGYS (K-Quencher) (Donor-SPGFRC(Acm)EAC(Acm)PPGYS-{K(Quencher)}; reading uncertain; also: printed as (Donor) SPGFRCEACPPGYS (K-Quencher)) [COMP2, FRET candidate peptide, COMP amino acids 146-159, Acm modified cysteines] | – | 8.33e-06 | 6.33e-06 | No activity | 6.5e-06 | – |
| (HiLyteFluor-488)-EENKELANELRRPPL-K (QXL520)-NH2 ({HiLyteFluor‑488}-EENKELANELRRPPLK(QXL520)-NH2) [TSP1-4, FRET candidate peptide, TSP1 amino acids 303-317] | – | 4.33e-05 | 3.33e-05 | No significant activity | 3.5e-05 | – |
| (HiLyteFluor-488)-DELSSMVLELRGLRT-K(QXL520)-K-NH2 ({HiLyteFluor‑488}-DELSSMVLELRGLRTK(QXL520)K-NH2) [SEQ ID NO: 12, S1 peptide substrate with additional lysine after the quencher] | – | – | – | – | – | not significantly affected |
| (HiLyteFluor-488)-DELSSMVLELRGLRT-K(QXL520)-E-NH2 ({HiLyteFluor‑488}-DELSSMVLELRGLRTK(QXL520)E-NH2) [SEQ ID NO: 11, S1 peptide substrate with additional carboxyl glutamic acid after the quencher] | – | – | – | – | – | not significantly affected |
| (Donor) GMQQSVRTGLPS (K-Quencher) ({donor fluorophore}-GMQQSVRTGLPS-{K(quencher)}; reading uncertain; also: donor fluorophore and quencher not given here, printed as (Donor) GMQQSVRTGLPS (K-Quencher)) [COMP1, FRET candidate peptide, COMP amino acids 73-84] | – | 8.17e-06 | 1.22e-05 | No activity | 1.27e-05 | – |
| (HiLyteFluor-488)-KVTEENKELANELRR-K (QXL520)-NH2 ({HiLyteFluor‑488}-KVTEENKELANELRRK(QXL520)-NH2) [TSP1-3, FRET candidate peptide, TSP1 amino acids 300-314] | – | 2.33e-05 | 2e-05 | No significant activity | 2e-05 | – |
| O=C1NC(=O)[C@](CNC(=O)c2cc(-c3cnn(CC4CC4)c3)no2)(C2CC2)N1 [Example 12.3, N-{[(4R)-4-cyclopropyl-2,5-dioxoimidazolidin-4-yl]methyl}-3-[1-(cyclopropylmethyl)-1H-pyrazol-4-yl]-1,2-oxazole-5-carboxamide] | 550 | – | – | – | – | – |
| (HiLyteFluor-488)-DELSSMVLELRGLRT-K(QXL520)-OH ({HiLyteFluor‑488}-DELSSMVLELRGLRTK(QXL520)-OH) [SEQ ID NO: 13, S1 peptide substrate ending in -OH] | – | – | – | – | – | not significantly affected |
